The text below walks through data of patent US20020165140A1 (ANGIOGENETICS SWEDEN, published 2002).

For one assay, the target named is T1, GAL4 DBD (UniProt P04386 1-147, limits assumed).
T1 construct: Control in the coprecipitation assay
The assay is described as follows: coimmunoprecipitation of 35S-IPAS with anti-GAL4 antibody, in vitro translated proteins.

For another assay, the target named is T2, GAL4-HIF-1α/526-826 (UniProt P04386 1-147; Q16665 526-826).
T2 construct: In vitro translated
The description is as above.

Procedure for GAL4 DBD: (§1) Precipitated fraction was analyzed by SDS PAGE and results were obtained by autoradiography.
(§2) After brief centrifugation, coimmunoprecipitated proteins were analyzed by SDS-PAGE.
Procedure for GAL4-HIF-1α/526-826: as §1, §2

B1: Inhibitory PAS Domain Protein (IPAS), in vitro translated (other)
chain: MALGLQRVRSNTELRKEKSRDAARSRRSQETEVLYQLAHTLPFARGVSAHLDKASIMRLTISYLRMHRLCAAGGKRGRATGRLLPEGPGGFRHGTHRRGRHGLPVGKCQQAPGPQSVDLCSSSLIHNPTPGTNFSLELIGHSIFDFIHPCDQEELQDALTPRPNLSKKKLEAPTERHFSLRMKSTLTSRGRTLNLKAATWKVLHCSGHMRAYKPPAQTSPAGSPRSEPPLQCLVLICEAIPQLPFHDGATLGLPQEKTPISTLFTPLWKALLCLVKRWPVQVLQGKGTESSLPSWVLWALNRKNCPG
modifications: 35S-labeled methionine (in the coprecipitation assay)
notes: Polypeptide of 307 amino acids; generated by in vitro translation in rabbit reticulocyte lysate; also called mouse IPAS; mIPAS
With B1, the binding result with GAL4 DBD and with GAL4-HIF-1α/526-826 was “no binding” each time.
